From US20260193326A1 (published 2026)
Where two headings read alike, the source gives them in different places.

Columns and labels:
[1] = target: T1, AAV5 (adeno-associated virus serotype 5); experiment: SPR, AAV on CM5 chip
T1 construct: also called adeno-associated virus serotype 5
Protocol: (§1) AAV was amine-coupled to a CM5 sensor chip at a density of 500-800 response units (RU). Nanobodies were injected at seven concentrations (1-100 nM) with a flow rate of 45 μL/min, and chip regeneration was performed using glycine-HCl (pH 1.5). Binding curves at different nanobody concentrations were used to calculate kinetic parameters (Kₐ, Kd, KD) (Table 2 and FIG. 2).

[2] = target: T2, AAV9 (adeno-associated virus serotype 9); experiment: SPR, AAV on CM5 chip
T2 construct: also called adeno-associated virus serotype 9
Protocol: as §1

[3] = target: T3, AAV8 (adeno-associated virus serotype 8); experiment: SPR, AAV on CM5 chip
T3 construct: also called adeno-associated virus serotype 8
Protocol: as §1

[4] = target: T1, AAV5; experiment: SPR, AAV on CM5 chip; remark: listed apart in the source
[5] = target: T2, AAV9; experiment: SPR, AAV on CM5 chip; remark: listed apart in the source
[6] = target: T3, AAV8; experiment: SPR, AAV on CM5 chip; remark: listed apart in the source
[7] = target: T4, AAV8; experiment: SPR, AAV on CM5 chip
T4 construct: also called adeno-associated virus serotype 8
Protocol: as §1

[8] = target: T5, AAV9; experiment: SPR, AAV on CM5 chip
T5 construct: also called adeno-associated virus serotype 9
Protocol: as §1

[9] = target: T6, AAV2 (UniProt P03135 1-735); experiment: SPR, AAV on CM5 chip;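 also: surface plasmon resonance with AAV amine-coupled to the chip as ligand, nanobodies injected as analyte over a concentration series, rate constants and affinity fitted from binding curves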
T6 construct: also called adeno-associated virus serotype 2
Protocol: as §1

[10] = target: T7, AAV5; experiment: SPR, AAV on CM5 chip
T7 construct: also called adeno-associated virus serotype 5
Protocol: as §1

[11] = target: Adeno-associated virus serotype 5 (AAV5) (AAV5); experiment: SPR, AAV amine-coupled to CM5 chip, nanobody 1-50 nM as analyte
[12] = target: Adeno-associated virus serotype 8 (AAV8) (AAV8); experiment: as above
[13] = target: Adeno-associated virus serotype 9 (AAV9) (AAV9); experiment: as above

| Binder | Kd [7] | koff [7] | kon [7] | Kd [8] | koff [8] | kon [8] | Kd [9] | koff [9] | kon [9] | Kd [10] | koff [10] | kon [10] | other results |
| --- | --- | --- | --- | --- | --- | --- | --- | --- | --- | --- | --- | --- | --- |
| A4-113 (VHH) VHH: VQLQESGGGLVQTGGSLRLSCVASGSRFSINTVGWYRQAPGKQRELVATVTRGGSTWYAGSVKGRFTISRDNTKNTIYLQMNSLRPEDTAVYYCHVDEIRQSTWTTSNLWGQGTQVTVSS | – | – | – | – | – | – | – | – | – | – | – | – | Kd [1]: 218 nM; koff [1]: 0.00145 s⁻¹; kon [1]: 6660 M⁻¹ s⁻¹; Kd [2]: 52.5 nM; koff [2]: 0.00051 s⁻¹; kon [2]: 9720 M⁻¹ s⁻¹; Kd [3]: 3.25 nM; koff [3]: 2e-05 s⁻¹; kon [3]: 6150 M⁻¹ s⁻¹ |
| A4-H5 (VHH) VHH: VQLQASGGGFVQPGGSLRLSCAASGRGFSINTMGWFRQAPGKERELVAVVTRGGTTYYADSVKGRFTISRDNSKNTVYLQMNSLRAEDTAVYYCHVDEVRQSSWTTSNLWGQGTQVTVSS | – | – | – | – | – | – | – | – | – | – | – | – | Kd [4]: 823 nM; koff [4]: 0.00152 s⁻¹; kon [4]: 1850 M⁻¹ s⁻¹; Kd [5]: 1900 nM; koff [5]: 0.0058 s⁻¹; kon [5]: 3050 M⁻¹ s⁻¹; Kd [6]: 302 nM; koff [6]: 0.0013 s⁻¹; kon [6]: 4300 M⁻¹ s⁻¹ |
| A4-H2 (VHH) VHH: VQLQASGGGFVQPGGSLRLSCAASGRSFSINTMGWFRQAPGKEREFVAVVTRGGSTYYADSVKGRFTISRDNSKNTVYLQMNSLRAEDTATYYCHIDEVRQSSWTTSNIWGQGTQVTVSS | – | – | – | – | – | – | – | – | – | – | – | – | Kd [4]: 8.51 nM; koff [4]: 0.00139 s⁻¹; kon [4]: 163000 M⁻¹ s⁻¹; Kd [5]: 400 nM; koff [5]: 0.00188 s⁻¹; kon [5]: 4700 M⁻¹ s⁻¹; Kd [6]: 1.98 nM; koff [6]: 0.00028 s⁻¹; kon [6]: 141000 M⁻¹ s⁻¹ |
| A4-H3 (VHH) VHH: VQLQASGGGFVQPGGSLRLSCAASGSIFSINLMGWFRQAPGKERELVAVITPGGNTYYADSVKGRFTISRDNSKNTVYLQMNSLRAEDTATYYCHVDEVRQSSWTTSNLWGQGTQVTVSS | – | – | – | – | – | – | – | – | – | – | – | – | Kd [4]: 3.05 nM; koff [4]: 0.00048 s⁻¹; kon [4]: 157000 M⁻¹ s⁻¹; Kd [5]: 4.32 nM; koff [5]: 0.00073 s⁻¹; kon [5]: 169000 M⁻¹ s⁻¹; Kd [6]: 9.59 nM; koff [6]: 0.00128 s⁻¹; kon [6]: 134000 M⁻¹ s⁻¹ |
| A4-001 (VHH) VHH: VQLQESGGGLVQPGGSLRLSCAASGRSFSINTMGWYRQAPGKQRELVATVTRGGSTNYAGSVKGRFTISRDNAKNTVYLQMNSLRPEDTAVYYCHIDEVRQSSWTTSNIWGQGTQVTVSS | 3.64 nM | 0.000669 s⁻¹ | 184000 M⁻¹ s⁻¹ | 142 nM | 0.0116 s⁻¹ | 81600 M⁻¹ s⁻¹ | 1.06 nM | 6.35e-05 s⁻¹ | 60100 M⁻¹ s⁻¹ | 6.47 nM | 0.00098 s⁻¹ | 151000 M⁻¹ s⁻¹ | – |
| A4-011 (VHH) VHH: VQLQESGGGLVQAGGSLRLSCAASGSIFSINSMGWYRQAPGKQRELVATVTRGGNTNYAGSVKGRFTISRDNAKNTVYLQMNSLRPEDTAVYYCHVDEVRESSWTTSNLWGQGTQVTVSS | 30.4 nM | 0.00272 s⁻¹ | 89400 M⁻¹ s⁻¹ | 132 nM | 0.0582 s⁻¹ | 439000 M⁻¹ s⁻¹ | 284 nM | 0.0462 s⁻¹ | 163000 M⁻¹ s⁻¹ | 29.6 nM | 0.00028 s⁻¹ | 9460 M⁻¹ s⁻¹ | – |
| A4-012 (VHH) VHH: VQLQESGGGAVQAGGSLRLSCAASGSIFSINSMGWYRQAPGKQRELVATVTRGGNTNYAGSVKGRFTISRDNAKNTVYLQMNSLRPEDTAVYYCHVDEVRESSWTTSNLWGQGTQVTVSS | 324 nM | 0.00417 s⁻¹ | 12900 M⁻¹ s⁻¹ | 672 nM | 0.0694 s⁻¹ | 103000 M⁻¹ s⁻¹ | 1180 nM | 0.0554 s⁻¹ | 47000 M⁻¹ s⁻¹ | 18.6 nM | 0.00173 s⁻¹ | 93100 M⁻¹ s⁻¹ | – |
| A4-021 (VHH) VHH: VQLQESGGGLVQAGGSLRLSCAASGSTFSINTMGWYRQAPGKQRELVATITRGGNTNYADSVKGRFTISRDNAKNTVYLQMNSLRPEDTAVYYCHVDEVRQSSWTTSNIWGQGTQVTVSS | 7.41 nM | 0.00155 s⁻¹ | 209000 M⁻¹ s⁻¹ | 1.87 nM | 0.00014 s⁻¹ | 74700 M⁻¹ s⁻¹ | 0.798 nM | 4.37e-05 s⁻¹ | 54800 M⁻¹ s⁻¹ | 7.81 nM | 0.00094 s⁻¹ | 120000 M⁻¹ s⁻¹ | – |
| A4-024 (VHH) VHH: VQLQESGGGLVQPGGSLRLSCAASGSNFRINTMGWYRQAPGKQRELVATVTRGGSTNYADSVKGRFTISRDNPKNTVYLQMNSLRPEDTAVYYCHVDEVRESSWTTSNLWGQGTQVTVSS | 209 nM | 0.00148 s⁻¹ | 7080 M⁻¹ s⁻¹ | 251 nM | 0.00173 s⁻¹ | 6900 M⁻¹ s⁻¹ | 639 nM | 0.00069 s⁻¹ | – | 35.5 nM | 0.00013 s⁻¹ | 3670 M⁻¹ s⁻¹ | – |
| A4-032 (VHH) VHH: VQLQESGGGLVQPGGSLRLSCVASGSSFSINTMGWYRQAPGKQRELVATVTRDGSTNYANSVKGRFTISRDNAKNTVYLQMNSLRPEDTAVYYCHVDEVRQSSWTTSNLWGQGTQVTVSS | 12.8 nM | 0.00169 s⁻¹ | 132000 M⁻¹ s⁻¹ | 16.4 nM | 0.00108 s⁻¹ | 65900 M⁻¹ s⁻¹ | 2.53 nM | 0.0004 s⁻¹ | 158000 M⁻¹ s⁻¹ | 6.7 nM | 0.0009 s⁻¹ | 134000 M⁻¹ s⁻¹ | – |
| A4-034 (VHH) VHH: VQLQESGGGLVQPGGSLRLSCAASGRGFSINTMGWYRQAPGKQRELVAAVTRGGTTNYADSVKGRFTISRDNAKNTVYLQMNSLRPEDTAVYYCHVDEVRQSSWTTSNLWGQGTQVTVSS | 7.84 nM | 0.00047 s⁻¹ | 59900 M⁻¹ s⁻¹ | 6.8 nM | 0.00129 s⁻¹ | 190000 M⁻¹ s⁻¹ | 3.36 nM | 0.00066 s⁻¹ | 196000 M⁻¹ s⁻¹ | 12.2 nM | 0.00021 s⁻¹ | 17200 M⁻¹ s⁻¹ | – |
| A4-038 (VHH) VHH: VQLQESGGGLVQPGGSLRLSCAASGSHFSINTMGWYRQAPGKQRELVATVTRGGSTNYANSVKGRFTISRDNAKNTVYLQMNSLRPEDTAVYYCHLDEVRQSSWTTSNLWGQGTQVTVSS | 69.5 nM | 0.0005 s⁻¹ | 7190 M⁻¹ s⁻¹ | 7.29 nM | 0.0011 s⁻¹ | 151000 M⁻¹ s⁻¹ | 0.704 nM | 0.00014 s⁻¹ | 199000 M⁻¹ s⁻¹ | 1.57 nM | 0.00028 s⁻¹ | 178000 M⁻¹ s⁻¹ | – |
| A4-039 (VHH) VHH: VQLQESGGGLVQPGGSLRLSCAASGSGFSINTMGWYRQAPGKWRELVATVTRGGSTNYAGSVKGRFTISRDNAKNTVYLQMNSLRPEDTAVYYCHIDEVRQSSWTTSNLWGQGTQVTVSS | 281 nM | 0.00177 s⁻¹ | 6290 M⁻¹ s⁻¹ | 360 nM | 0.001 s⁻¹ | 2780 M⁻¹ s⁻¹ | 39.5 nM | 0.00015 s⁻¹ | 3800 M⁻¹ s⁻¹ | 246 nM | 0.00182 s⁻¹ | 7410 M⁻¹ s⁻¹ | – |
| A4-044 (VHH) VHH: VQLQESGGGLVQPGGSLRLSCAASGSSFSINTMGWYRQAPGKQRELVATVTRGGVTNYADSVKGRFTISRDNAKNTVYLQMNSLRPEDTAVYYCHVDEVRQSSWTTSNLWGQGTQVTVSS | 1.52 nM | 0.00024 s⁻¹ | 158000 M⁻¹ s⁻¹ | 13.1 nM | 0.00188 s⁻¹ | 143000 M⁻¹ s⁻¹ | 13.1 nM | 0.00069 s⁻¹ | 52900 M⁻¹ s⁻¹ | 7.47 nM | 0.00137 s⁻¹ | 183000 M⁻¹ s⁻¹ | – |
| A4-046 (VHH) VHH: VQLQESGGGLVQPGGSLRLSCAASGSRFSINTMGWYRQAPGKQRELVATVTRGGSTNYADSVKGRFTISRDNAKNTVYLQMNSLRPEDTAVYYCHVDEVRQSSWTTSNLWGQGTQVTVSS | 37.6 nM | 0.00455 s⁻¹ | 121000 M⁻¹ s⁻¹ | 16.1 nM | 0.00269 s⁻¹ | 167000 M⁻¹ s⁻¹ | 48.8 nM | 0.00725 s⁻¹ | 148000 M⁻¹ s⁻¹ | 55.3 nM | 0.00933 s⁻¹ | 169000 M⁻¹ s⁻¹ | – |
| A4-048 (VHH) VHH: VQLQESGGGLVQPGGSLRLSCAASGSMFSINTMGWYRQAPGKQRELVATVTRGGNTNYAGSVKGRFTISRDNAKNTVYLQMNSLRPEDTAVYYCHVDEVRQSSWTTSNLWGQGTQVTVSS | 146 nM | 0.00031 s⁻¹ | 2130 M⁻¹ s⁻¹ | 399 nM | 0.0013 s⁻¹ | 3260 M⁻¹ s⁻¹ | 155 nM | 0.00137 s⁻¹ | 8850 M⁻¹ s⁻¹ | 54.4 nM | 0.00051 s⁻¹ | 9380 M⁻¹ s⁻¹ | – |
| A4-T1 (A4-017 with a C-terminal 6xHis tag) (VHH) VHH: VQLQESGGGLVQPGGSLRLSCAASGSIFSINLMGWYRQAPGKQRELVATITRGGNTNYAGSVKGRFTISRDNAKNTVYLQMNSLRPEDTAVYYCHVDEVRQSSWTTSNLWGQGTQVTVSS | – | – | – | – | – | – | – | – | – | – | – | – | Kd [11]: 268 nM; koff [11]: 0.00193 s⁻¹; kon [11]: 7200 M⁻¹ s⁻¹; Kd [12]: 202 nM; koff [12]: 0.00148 s⁻¹; kon [12]: 7310 M⁻¹ s⁻¹; Kd [13]: 0.713 nM; koff [13]: 0.00012 s⁻¹; kon [13]: 168000 M⁻¹ s⁻¹ |
